tested on: Escherichia coli TOP10; test: shrunken log2 fold change of peptide-encoding DNA abundance (4.5 h post-induction vs induction); higher = less antimicrobial activity (less host growth inhibition); details: time post-induction: 4.5 h; library: site-saturation at positions 5, 18, 19, 20
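Further: peptides expressed intracellularly from a pBAD plasmid library in pooled LB shake-flask culture, induced with 0.3% L-arabinose, DNA abundance read by NGS, three biological replicates, DESeq2 with apeglm shrinkage.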

Row | Sequence | shrunken log2 fold change
1 | RRIRWRPPRLPRPRPRPAKQPRP | 0.0759
2 | RRIRSRPPRLPRPRPRPEGEPRP | 0.809
3 | RRIRDRPPRLPRPRPRPKNTPRP | -0.226
4 | RRIRCRPPRLPRPRPRPDNMPRP | -1.31
5 | RRIRNRPPRLPRPRPRPLFDPRP | -0.298
6 | RRIRPRPPRLPRPRPRPFHAPRP | -0.0472
7 | RRIRKRPPRLPRPRPRPNTYPRP | 0.0436
8 | RRIRARPPRLPRPRPRPFAIPRP | -0.239
9 | RRIRFRPPRLPRPRPRPMNKPRP | -0.65
10 | RRIRFRPPRLPRPRPRPINTPRP | -0.761
11 | RRIRMRPPRLPRPRPRPRNVPRP | 0.29
12 | RRIRTRPPRLPRPRPRPYLHPRP | -0.367
13 | RRIRGRPPRLPRPRPRPKETPRP | -0.0578
14 | RRIRDRPPRLPRPRPRPSPHPRP | -0.0473
15 | RRIRRRPPRLPRPRPRPCYCPRP | -0.00192
16 | RRIRHRPPRLPRPRPRPMSNPRP | 0.00049
17 | RRIRARPPRLPRPRPRPAWSPRP | 0.329
18 | RRIRSRPPRLPRPRPRPTGSPRP | 0.0396
19 | RRIRWRPPRLPRPRPRPNGHPRP | -0.0518
20 | RRIRARPPRLPRPRPRPHPVPRP | 0.277
21 | RRIRSRPPRLPRPRPRPCFVPRP | -0.378
22 | RRIRGRPPRLPRPRPRPFSIPRP | -0.0155

Row | Sequence | shrunken log2 fold change
23 | RRIRLRPPRLPRPRPRPVVHPRP | 0.93
24 | RRIRRRPPRLPRPRPRPTRSPRP | 0.341
25 | RRIRCRPPRLPRPRPRPNECPRP | -0.37
26 | RRIRLRPPRLPRPRPRPSWYPRP | -0.294
27 | RRIRGRPPRLPRPRPRPPDIPRP | 0.514
28 | RRIRDRPPRLPRPRPRPTYFPRP | -0.0127
29 | RRIRWRPPRLPRPRPRPKHRPRP | 0.149
30 | RRIRDRPPRLPRPRPRPIEFPRP | 0.144
31 | RRIRARPPRLPRPRPRPKATPRP | 0.347
32 | RRIRRRPPRLPRPRPRPQMRPRP | 1.05
33 | RRIRSRPPRLPRPRPRPMGIPRP | 0.0414
34 | RRIRLRPPRLPRPRPRPPWTPRP | 0.411
35 | RRIRNRPPRLPRPRPRPWVPPRP | -1.03
36 | RRIRTRPPRLPRPRPRPCTDPRP | -0.502
37 | RRIRCRPPRLPRPRPRPWTHPRP | -0.325
38 | RRIRRRPPRLPRPRPRPNVGPRP | 0.0319
39 | RRIRMRPPRLPRPRPRPKNDPRP | 1.05
40 | RRIRCRPPRLPRPRPRPISMPRP | -0.65
41 | RRIRFRPPRLPRPRPRPYVWPRP | 0.109
42 | RRIRERPPRLPRPRPRPALSPRP | 0.15
43 | RRIRTRPPRLPRPRPRPGEYPRP | -0.194
44 | RRIRPRPPRLPRPRPRPGPVPRP | 0.258

Row | Sequence | shrunken log2 fold change
45 | RRIRTRPPRLPRPRPRPSHIPRP | -0.274
46 | RRIRWRPPRLPRPRPRPCMEPRP | -0.0563
47 | RRIRSRPPRLPRPRPRPPLAPRP | 0.812
48 | RRIRSRPPRLPRPRPRPREYPRP | -0.0557
49 | RRIRFRPPRLPRPRPRPRTDPRP | -0.0313
50 | RRIRDRPPRLPRPRPRPQYIPRP | -0.246
51 | RRIRCRPPRLPRPRPRPTCVPRP | -0.0603
52 | RRIRDRPPRLPRPRPRPWPAPRP | 0.308
53 | RRIRARPPRLPRPRPRPNEQPRP | 0.234
54 | RRIRQRPPRLPRPRPRPILRPRP | 0.034
55 | RRIRQRPPRLPRPRPRPKRYPRP | -0.138
56 | RRIRMRPPRLPRPRPRPRTAPRP | 1.29
57 | RRIRRRPPRLPRPRPRPEWNPRP | 0.471
58 | RRIRYRPPRLPRPRPRPDMQPRP | 0.0426
59 | RRIRCRPPRLPRPRPRPGVHPRP | -0.108
60 | RRIRVRPPRLPRPRPRPTLQPRP | 0.0594
61 | RRIRTRPPRLPRPRPRPHVTPRP | -0.15
62 | RRIRTRPPRLPRPRPRPLIDPRP | -0.0458
63 | RRIRWRPPRLPRPRPRPKFEPRP | 0.2
64 | RRIRFRPPRLPRPRPRPDAMPRP | 0.138
65 | RRIRDRPPRLPRPRPRPAACPRP | 0.598
66 | RRIRDRPPRLPRPRPRPTKRPRP | 0.123

Row | Sequence | shrunken log2 fold change
67 | RRIRCRPPRLPRPRPRPFGWPRP | 0.24
68 | RRIRRRPPRLPRPRPRPCDPPRP | 0.0316
69 | RRIRTRPPRLPRPRPRPKGWPRP | 0.414
70 | RRIRTRPPRLPRPRPRPHHCPRP | -0.12
71 | RRIRQRPPRLPRPRPRPYWWPRP | -0.143
72 | RRIRNRPPRLPRPRPRPCAGPRP | -0.123
73 | RRIRNRPPRLPRPRPRPAFHPRP | -0.436
74 | RRIRERPPRLPRPRPRPCPMPRP | -0.511
75 | RRIRGRPPRLPRPRPRPNTMPRP | 0.0452
76 | RRIRPRPPRLPRPRPRPMTMPRP | -0.469
77 | RRIRDRPPRLPRPRPRPNNLPRP | -0.556
78 | RRIRIRPPRLPRPRPRPQVIPRP | -0.0417
79 | RRIRSRPPRLPRPRPRPLKPPRP | 0.0304
80 | RRIRQRPPRLPRPRPRPSWDPRP | -0.16
81 | RRIRSRPPRLPRPRPRPPHLPRP | -0.00867
82 | RRIRHRPPRLPRPRPRPMPTPRP | 0.0549
83 | RRIRMRPPRLPRPRPRPPWNPRP | 0.369
84 | RRIRDRPPRLPRPRPRPIFDPRP | 0.0515
85 | RRIRHRPPRLPRPRPRPAKYPRP | 0.136
86 | RRIRTRPPRLPRPRPRPFFRPRP | 0.234
87 | RRIRCRPPRLPRPRPRPREIPRP | 0.218
88 | RRIRDRPPRLPRPRPRPLPYPRP | -0.0311

Row | Sequence | shrunken log2 fold change
89 | RRIRNRPPRLPRPRPRPPDKPRP | 0.182
90 | RRIRRRPPRLPRPRPRPECQPRP | 0.253
91 | RRIRARPPRLPRPRPRPPIQPRP | 0.431
92 | RRIRYRPPRLPRPRPRPTIIPRP | -0.669
93 | RRIRPRPPRLPRPRPRPTKKPRP | 0.0418
94 | RRIRYRPPRLPRPRPRPRWYPRP | -1.15
95 | RRIRLRPPRLPRPRPRPGLNPRP | 0.15
96 | RRIRKRPPRLPRPRPRPECIPRP | 0.0177
97 | RRIRTRPPRLPRPRPRPNVQPRP | -0.429
98 | RRIRKRPPRLPRPRPRPKNIPRP | -0.253
99 | RRIRTRPPRLPRPRPRPNMQPRP | -0.223
100 | RRIRERPPRLPRPRPRPRGAPRP | 0.59
101 | RRIRWRPPRLPRPRPRPGDLPRP | 0.0106
102 | RRIRSRPPRLPRPRPRPTAKPRP | 0.528
103 | RRIRGRPPRLPRPRPRPKCKPRP | 0.51
104 | RRIRMRPPRLPRPRPRPMSQPRP | 0.0528
105 | RRIRQRPPRLPRPRPRPEENPRP | 0.00965
106 | RRIRIRPPRLPRPRPRPNQHPRP | -0.337
107 | RRIRPRPPRLPRPRPRPNPWPRP | 0.277
108 | RRIRNRPPRLPRPRPRPNMGPRP | -0.00804
109 | RRIRGRPPRLPRPRPRPGWIPRP | 0.117

From the supplement of paper PMC9112550, “Optimization of the antimicrobial peptide Bac7 by deep mutational scanning” (BMC Biology, 2022)
